Reference: patent US9976134B2, “Thermolysin variants” (Danisco US Inc., priority 2007, dated 2018)
Residue numbers refer to the chain shown, from its start. Numbers in names are those of the source.

B1: Q128I: single-substitution thermolysin variant (SEQ ID NO:3 numbering) (protein, listed as Geobacillus caldoproteolyticus)
chain: ITGTSTVGVGRGVLGDQKNINTTYSTYYYLQDNTRGNGIFTYDAKYRTTLPGSLWADADNQFFASYDAPAVDAHYYAGVTYDYYKNVHNRLSYDGNNAAIRSSVHYSQGYNNAFWNGSQMVYGDGDGITFIPLSGGIDVVAHELTHAVTDYTAGLIYQNESGAINEAISDIFGTLVEFYANKNPDWEIGEDVYTPGISGDSLRSMSDPAKYGDPDHYSKRYTGTQDNGGVHINSGIINKAAYLISQGGTHYGVSVVGIGRDKLGKIFYRALTQYLTPTSNFSQLRAAAVQSATDLYGSTSQEVASVKQAFDAVGVK
B2: Y151N: single-substitution thermolysin variant (SEQ ID NO:3 numbering) (protein, listed as Geobacillus caldoproteolyticus)
chain: B1 chain with I128Q, Y151N
B3: Q273Y: single-substitution thermolysin variant (SEQ ID NO:3 numbering) (protein, listed as Geobacillus caldoproteolyticus)
chain: B1 chain with I128Q, Q273Y
B4: I156W: single-substitution thermolysin variant (SEQ ID NO:3 numbering) (protein, listed as Geobacillus caldoproteolyticus)
chain: B1 chain with I128Q, I156W
B5: Q128Y: single-substitution thermolysin variant (SEQ ID NO:3 numbering) (protein, listed as Geobacillus caldoproteolyticus)
chain: B1 chain with I128Y
B6: I156T: single-substitution thermolysin variant (SEQ ID NO:3 numbering) (protein, listed as Geobacillus caldoproteolyticus)
chain: B1 chain with I128Q, I156T
B7: T278M: single-substitution thermolysin variant (SEQ ID NO:3 numbering) (protein, listed as Geobacillus caldoproteolyticus)
chain: B1 chain with I128Q, T278M
B8: T049I: single-substitution thermolysin variant (SEQ ID NO:3 numbering) (protein, listed as Geobacillus caldoproteolyticus)
chain: B1 chain with T49I, I128Q
B9: T049N: single-substitution thermolysin variant (SEQ ID NO:3 numbering) (protein, listed as Geobacillus caldoproteolyticus)
chain: B1 chain with T49N, I128Q
B10: T049L: single-substitution thermolysin variant (SEQ ID NO:3 numbering) (protein, listed as Geobacillus caldoproteolyticus)
chain: B1 chain with T49L, I128Q
B11: T049Q: single-substitution thermolysin variant (SEQ ID NO:3 numbering) (protein, listed as Geobacillus caldoproteolyticus)
chain: B1 chain with T49Q, I128Q
B12: I156R: single-substitution thermolysin variant (SEQ ID NO:3 numbering) (protein, listed as Geobacillus caldoproteolyticus)
chain: B1 chain with I128Q, I156R
B13: Q128M: single-substitution thermolysin variant (SEQ ID NO:3 numbering) (protein, listed as Geobacillus caldoproteolyticus)
chain: B1 chain with I128M
B14: Q128V: single-substitution thermolysin variant (SEQ ID NO:3 numbering) (protein, listed as Geobacillus caldoproteolyticus)
chain: B1 chain with I128V
B15: Y151T: single-substitution thermolysin variant (SEQ ID NO:3 numbering) (protein, listed as Geobacillus caldoproteolyticus)
chain: B1 chain with I128Q, Y151T

System: not given
Experiment: not given
Details: TIDE 2X 0.78 g/l, 6 gpg, pH 8.2, 30 min at 20°C, A405; variant vs wild-type thermolysin at same protein concentration
Procedure: Thermolysin containing protease samples were obtained from filtered broth of cultures grown in microtiter plates for 3 days at 37° C. with shaking at 280 rpm under humidified aeration.
• Thermolysin containing culture supernatants (˜100-200 μg protein per ml) • TIDE® 2× (nil enzymes) detergent (P&G) • Dilution Buffer (10 mM NaCl, 0.1 mM CaCl2, 0.005% TWEEN®-80) The equipment used was a Biomek FX Robot (Beckman Coulter), a SpectraMAX MTP Reader (type 340; Molecular Devices), and an iEMS incubator/shaker (Thermo/Labsystems). MTPs were obtained from Costar (type 9017). TIDE® 2× Liquid Detergent Preparation (US Conditions):
Milli-Q water was adjusted to 6 gpg water hardness using a (Ca/Mg 3:1) hardness stock solution (282.3 g/L CaCl2.2H20, 130.1 g/L MgCl2.6H2O), 0.78 g/1 detergent TIDE® 2× was added, and the detergent solution was stirred vigorously for at least 15 minutes. Then, 5 mM HEPES was added and the pH adjusted to 8.2.
Microswatches of ¼ inch circular diameter were obtained from CFT (Vlaardingen, The Netherlands).
Two microswatches were placed vertically into each well of a 96-well microtiter plate to expose the whole surface area (i.e., not flat on the bottom of the well).
The incubator was set to 20° C. The filtered culture broth samples were tested at an appropriate concentration by dilution with a mixture of 10 mM NaCl, 0.1 mM CaCl2, 0.005% TWEEN®-80 solution. The detergent solution was prepared as described above. Then, 190 μl of detergent solution were added to each well of the MTP, containing microswatches. To this mixture, 10 μl of diluted enzyme solution were added to each well (to provide a total volume of 200 μl/well). The MTP was covered with a plate seal and placed in an incubator for 30 minutes at 20° C., with agitation at 1400 rpm (iEMS incubator). Following incubation under the appropriate conditions, 100 μl of solution from each well was removed and placed into a new MTP. Subsequently this MTP, containing 100 μl of solution/well, was read at 405 nm in a MTP-Reader. Blank controls, containing 2 microswatches/well and detergent, without the addition of thermolysin containing samples, were also included in the test.
The observed absorbance value was corrected for the blank value (obtained after incubation of microswatches in the absence of added enzyme). The resulting absorbance was a measure for the hydrolytic activity. For each sample (thermolysin or a variant) the performance index (PI) was calculated. The performance index is a comparison of the performance of the variant (actual value) and the standard thermolysin enzyme (theoretical value) at the same protein concentration. In addition, the theoretical values were calculated, using the parameters of the Langmuir equation of the standard enzyme.
C. Stability Assay in the Presence of Detergent
In this example, experiments were conducted to determine the stain removal performance of various singly substituted thermolysin (also referred to herein as Proteinase-T or PrT) variants. As described in Example 1, the stain cleaning performance of thermolysin variants was done utilizing a blood/milk/ink (BMI) microswatch assay. Briefly the cleaning performance of chosen single-substitution thermolysin variants was assessed in a TIDE® 2× microswatch assay.

First: B1
Second: B2
The “PI (performance index), stain removal” value of the first is higher: 1.34 for the first, 1.19 for the second.

Compared with B3, B4 is higher in “PI (performance index), stain removal” value: 1.09 for the first, 1.16 for the second.

Going from B5 to B6, the “PI (performance index), stain removal” value falls from 1.13 to 1.03.

Going from B7 to B8, the “PI (performance index), stain removal” value rises from 1.02 to 1.24.

Going from B9 to B10, the “PI (performance index), stain removal” value rises from 1.10 to 1.25.

Going from B11 to B12, the “PI (performance index), stain removal” value falls from 1.30 to 1.22.

First: B13
Second: B14
The “PI (performance index), stain removal” value of the first is higher: 1.10 for the first, 1.07 for the second.

In the case of B15, the “PI (performance index), stain removal” value is reported as 1.13.

System: not listed separately
Experiment: Stability assay in 25% TIDE 2X detergent with DTPA (residual Abz-AGLA-Nba protease activity)
Type: physicochemical
Details: 60 min at 32°C; variant residual AGLA activity divided by wild-type residual activity
Method in brief: (§1)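 Thermolysin variant culture supernatants stressed in TIDE 2× detergent, with or without DTPA: 60 min at 32° C or 180 min at 50° C. Residual versus unstressed activity on Abz-AGLA-Nba read kinetically at 25° C (Ex 350/Em 420). Performance index is variant residual activity divided by wild-type thermolysin residual activity.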

First: B1
Second: B2
The “PI (relative stability), 25% TIDE 2X with DTPA” value of the first is higher: 1.32 for the first, 1.25 for the second.

Going from B3 to B4, the “PI (relative stability), 25% TIDE 2X with DTPA” value rises from 1.05 to 1.12.

Going from B5 to B6, the “PI (relative stability), 25% TIDE 2X with DTPA” value falls from 1.09 to 1.08.

Going from B7 to B8, the “PI (relative stability), 25% TIDE 2X with DTPA” value falls from 1.09 to 1.01.

Going from B9 to B10, the “PI (relative stability), 25% TIDE 2X with DTPA” value falls from 1.03 to 1.02.

Going from B12 to B13, the “PI (relative stability), 25% TIDE 2X with DTPA” value falls from 1.15 to 1.06.

Going from B14 to B15, the “PI (relative stability), 25% TIDE 2X with DTPA” value falls from 1.45 to 1.18.

System: not listed separately
Experiment: Stability assay in 25% TIDE 2X detergent without DTPA (residual Abz-AGLA-Nba protease activity)
Type: physicochemical
Details: 180 min at 50°C; variant residual AGLA activity divided by wild-type residual activity
Method in brief: as §1

Compared with B1, B2 is lower in “PI (relative stability), 25% TIDE 2X without DTPA” value: 1.19 for the first, 1.05 for the second.

Going from B5 to B9, the “PI (relative stability), 25% TIDE 2X without DTPA” value rises from 1.05 to 1.07.

Going from B11 to B13, the “PI (relative stability), 25% TIDE 2X without DTPA” value rises from 1.07 to 1.09.

Going from B14 to B15, the “PI (relative stability), 25% TIDE 2X without DTPA” value falls from 1.20 to 1.10.

Target: T1, thermolysin (Bacillus thermoproteolyticus, UniProt P00800)
T1 construct: purchased Sigma
T1 sequence (P00800 233-548): B1 chain with I128Q
Experiment: Stabilisation of thermolysin in Unilever ALL Small and Mighty detergent by metalloproteinase inhibitors (SDS-PAGE)
Details: 1 mM inhibitor, thermolysin 800 μg/ml in Unilever ALL Small and Mighty, FIG. 8
Procedure: Zinc Chloride, Phosphoramidon, Galardin are known metalloproteinase inhibitors. They were purchased from Sigma and dissolved in water or DMSO. Different concentrations of the inhibitors were premixed with thermolysin (also referred to as Proteinase-T or PrT) for 10 min at room temperature. Then the inhibitors were added into Unilever detergent ALL Small and Mighty so that the final concentration of thermolysin was 800 μg/ml in a total volume of 1 ml. At different time points, samples were taken and precipitated with TCA. Briefly, 10 μl sample of detergent with enzyme was added into 500 μl of 0.2 N HCl on ice, and then 500 μl of 20% TCA was added. The tubes were mixed and incubated on ice for 20 min. The pellet was collected and washed with 90% ice-cold acetone. The pellet was dissolved in sample loading buffer (Invitrogen) for SDS-PAGE analysis.

With `CNC(=O)[C@H](Cc1c[nH]c2ccccc12)NC(=O)[C@@H](CC(=O)NO)CC(C)C` [Galardin] the “stabilisation of thermolysin in detergent” value was “significantly stabilize thermolysin in detergent”.
